From US20090311283A1
Read-outs that look alike come from different tables or passages of the source.

Experiments:
[1] = target: HLA-B*0702 (human); test: competition with 125I-labelled probe peptide for purified HLA, gel filtration
[2] = target: HLA-B*3501 (human); test: as above
[3] = target: HLA-B*5301 (human); test: as above
[4] = target: HLA-B*5401 (human); test: as above
[5] = target: HLA-A*0301 (human); test: competition with 125I-labelled probe peptide for purified HLA-A*0301, gel filtration; relative binding; details: scale: ratio
[6] = target: HLA-A*0301 (Human); test: competition with 125I-labelled probe peptide for purified HLA, gel filtration; relative to standard peptide; details: remark: other sources report otherwise
[7] = target: HLA-A*3301 (human); details: remark: other sources report otherwise
[8] = target: HLA-A*0301 (human); test: competition with 125I-labelled probe peptide for purified HLA, gel filtration; relative binding to standard peptide
[9] = target: HLA-A*0301 (human); test: competition with 125I-labelled probe peptide for purified HLA-A*0301, gel filtration; ratio to standard peptide 941.12
[10] = target: HLA-A*3101 (human); test: competition with 125I-labelled probe peptide for purified HLA-A*3101, gel filtration; ratio to standard peptide 941.12
[11] = target: HLA-A*2401 (human); test: competition with 125I-labelled probe peptide ([..]) for purified HLA, gel filtration; relative to standard peptide 979.02
[12] = target: T1, HLA-DR4w15 (DRB1*0405) (human); test: 125I-probe competition on purified DR4w15; ratio vs standard 717.01 (IC50 38 nM)
T1 chain 1: not shown
T1 chain 2: not shown

[13] = target: HLA-DR5w11 (DRB1*1101) (human)
[14] = target: HLA-DR7 (DRB1*0701) (human)
[15] = target: T2, HLA-DR1 (DRB1*0101) (human); test: 125I-probe competition on purified DR1; ratio vs standard 515.01 (IC50 5.0 nM)
T2 chain 1: not shown
T2 chain 2: not shown

[16] = target: T3, HLA-DR4w4 (DRB1*0401) (human); test: 125I-probe competition on purified DR4w4; ratio vs standard 515.01 (IC50 45 nM)
T3 chain 1: not shown
T3 chain 2: not shown

[17] = target: T4, HLA-DRw53 (DRB4*0101) (human); test: 125I-probe competition on purified DRw53; ratio vs standard 717.01 (IC50 58 nM)
T4 chain 1: not shown
T4 chain 2: not shown

[18] = target: HLA-DR2w2β2 (DRB5*0101) (human)
[19] = target: HLA-DR6w19 (DRB1*1302) (human); details: remark: other sources report otherwise
[20] = target: HLA-DR8w2 (DRB1*0802) (human); details: remark: other sources report otherwise
[21] = target: HLA-DR9 (DRB1*0901) (human); details: remark: other sources report otherwise
[22] = target: T5, HLA-DR2w2β1 (DRB1*1501) (human); test: 125I-probe competition on purified DR2w2β1; ratio vs standard 507.02 (IC50 […]); details: remark: other sources report otherwise
T5 chain 1: not shown
T5 chain 2: not shown

[23] = target: T6, HLA-DRB1*0101 (human); test: inhibition of 125I-labelled probe peptide binding to purified HLA-DR; gel filtration
T6 chain 1: not shown
T6 chain 2: not shown

[24] = target: T7, HLA-DRB1*0401 (human); test: as above
T7 chain 1: not shown
T7 chain 2: not shown

[25] = target: T8, HLA-DRB1*0701 (human); test: as above
T8 chain 1: not shown
T8 chain 2: not shown

[26] = target: T9, HLA-DRB1*1101 (human); test: as above
T9 chain 1: not shown
T9 chain 2: not shown

[27] = target: T10, HLA-DRB4*0101 (human); test: as above
T10 chain 1: not shown
T10 chain 2: not shown

[28] = target: T11, HLA-DRB5*0101 (human); test: as above
T11 chain 1: not shown
T11 chain 2: not shown

[29] = remark: other sources report otherwise

Question: For IPWTHKVGNF (modifications not checked) [HBV POL 50 …], which binding affinity ratio (IC50 standard peptide / IC50 test peptide) [1] is on record?
Answer: 0.0013

Question: What about the binding affinity ratio (IC50 standard peptide / IC50 test peptide) [2] of the same binder?
Answer: 0.0001

Question: What about the binding affinity ratio (IC50 standard peptide / IC50 test peptide) [3] of the same binder?
Answer: 0.0001

Question: And the binding affinity ratio (IC50 standard peptide / IC50 test peptide) [4]?
Answer: 0.0002

Question: Which binding affinity ratio (relative to the standard peptide) [5] does the source give for FLLVLLDY (modifications not checked) [HBV ENV 256 FLLVLLDY] here?
Answer: 0.005

Question: For ILRGTSFVY (modifications not checked) [HBV POL 760 …], which binding affinity ratio (IC50 of standard peptide / IC50 of test peptide) [6] is on record?
Answer: 0.044

Question: What does the source list for RLKLIMPAR (modifications not checked) [HBV POL 106 peptide …]?
Answer: binding affinity ratio (IC50 of standard peptide / IC50 of test peptide) [7]: 0.049; binding affinity ratio (IC50 of standard peptide / IC50 of test peptide) [8]: 0.095; binding affinity ratio (IC50 of standard peptide / IC50 of test peptide) [9]: 0.095; binding affinity ratio (IC50 of standard peptide / IC50 of test peptide) [10]: 3.1

Question: For KFAVPNLQSL (modifications not checked) [HBV POL 395 …], which binding affinity ratio (IC50 of the standard peptide / IC50 of the test peptide) [11] is on record?
Answer: 0.002

Question: CQVFADATPTGWGLA (modifications not checked) was tested. Which binding affinity ratio (standard IC50 / test IC50) [12] did it give?
Answer: 0.28

Question: Which results are given for WPKFAVPNLQSLTNL (modifications not checked)?
Answer: binding affinity ratio (standard IC50 / test IC50) [13]: 0.0002; binding affinity ratio (standard IC50 / test IC50) [14]: 0.0008; binding affinity ratio (standard IC50 / test IC50) [15]: 0.0007; binding affinity ratio (standard IC50 / test IC50) [16]: 0.0023; binding affinity ratio (standard IC50 / test IC50) [17]: 0.018

Question: What does the source list for VCAFSSAGPCALRFT (modifications not checked) [HBV X exemplary 15-mer …]?
Answer: binding affinity ratio (standard IC50 / test IC50) [13, 29]: 0.0003; binding affinity ratio (standard IC50 / test IC50) [14, 29]: 0.02

Question: What does the source list for VGNFTGLYSSTVPVF (modifications not checked)?
Answer: binding affinity ratio (standard IC50 / test IC50) [18]: 0.0016; binding affinity ratio (standard IC50 / test IC50) [19]: 0.058; binding affinity ratio (standard IC50 / test IC50) [14, 29]: 0.58; binding affinity ratio (standard IC50 / test IC50) [20]: 0.0044; binding affinity ratio (standard IC50 / test IC50) [21]: 0.31; binding affinity ratio (standard IC50 / test IC50) [22]: 0.01

Question: What does the source list for PLPIHTAELLAACFA (modifications not checked)?
Answer: binding affinity ratio (standard IC50 / test IC50) [14, 29]: -0.0003; binding affinity ratio (standard IC50 / test IC50) [15, 29]: 0.0046; binding affinity ratio (standard IC50 / test IC50) [16, 29]: 0.049

Question: ASKLCLGWLWGMDID (modifications not checked) [… (HBV NUC 19, 15-mer)] was tested. Which binding affinity ratio (IC50 of standard peptide / IC50 of test peptide) [23] did it give?
Answer: 0.0002

Question: And the binding affinity ratio (IC50 of standard peptide / IC50 of test peptide) [24]?
Answer: 0.0017

Question: And the binding affinity ratio (IC50 of standard peptide / IC50 of test peptide) [25]?
Answer: 0.0013

Question: And the binding affinity ratio (IC50 of standard peptide / IC50 of test peptide) [26]?
Answer: -0.0002

Question: And the binding affinity ratio (IC50 of standard peptide / IC50 of test peptide) [27]?
Answer: 0.001

Question: And the binding affinity ratio (IC50 of standard peptide / IC50 of test peptide) [28]?
Answer: -0.0005
